In patent US8278037B2, “N-acetylgalactosamine transferases and nucleic acids encoding the same” (National Institute of Advanced Industrial Science and …, priority 2002, dated 2012):

Columns and labels:
[1] = system: asialo/agalacto-fetal calf fetuin; experiment: LacdiNAc synthesizing activity toward asialo/agalacto-fetal calf fetuin, WFA lectin blot; assay type: biochemical; settings: 37° C. for 16 hr, HRP conjugated WFA lectin detection
Description: Fetal calf fetuin (FCF), neuraminidase, β1-4 galactosidase and glycopeptidase F were purchased from Sigma, Nacalai Tesque (Kyoto, Japan), Calbiochem and Takara, respectively. Asialo/agalacto-FCF was prepared from 200 μg of FCF by incubating with 4 μU of neuraminidase and 12 μU of β1,4-galactosidase at 37° C. for 16 hr. The transfer of GalNAc by GalNAc-T2 to glycoprotein was performed in 20 μl of a standard reaction mixture containing 50 μg of asialo/agalacto-FCF produced by glycosidase treatment. After the incubation at 37° C. for 16 hr, each 5 μl of the reaction mixture was digested with glycopeptidase F (GPF) according to manufacture's instruction. For detection of transferred GalNAc, horseradish peroxidase (HRP) conjugated lectin, Wisteria floribunda agglutinin (WFA) (EY Laboratories, San Mateo, Calif.), was used. A 1 μl of reaction mixtures subjected to 12.5% SDS-PAGE were transferred to nitrocellulose membrane (Schleicher & Schuell, Keene, N.H.) and stained with 0.1% HRP conjugated WFA lectin. The signals were detected using enhanced chemiluminescence (ECL) and Hyperfilm ECL (Amersham Biosciences).

NGalNAc-T1 = biological target: T1, NGalNAc-T1 (Homo sapiens, UniProt Q76KP1); experiment: Study of optimum pH in enzymatic activity; assay type: biochemical; settings: for (A) − (B): blank 263.21 subtracted
T1 sequence (Q76KP1 62-1039): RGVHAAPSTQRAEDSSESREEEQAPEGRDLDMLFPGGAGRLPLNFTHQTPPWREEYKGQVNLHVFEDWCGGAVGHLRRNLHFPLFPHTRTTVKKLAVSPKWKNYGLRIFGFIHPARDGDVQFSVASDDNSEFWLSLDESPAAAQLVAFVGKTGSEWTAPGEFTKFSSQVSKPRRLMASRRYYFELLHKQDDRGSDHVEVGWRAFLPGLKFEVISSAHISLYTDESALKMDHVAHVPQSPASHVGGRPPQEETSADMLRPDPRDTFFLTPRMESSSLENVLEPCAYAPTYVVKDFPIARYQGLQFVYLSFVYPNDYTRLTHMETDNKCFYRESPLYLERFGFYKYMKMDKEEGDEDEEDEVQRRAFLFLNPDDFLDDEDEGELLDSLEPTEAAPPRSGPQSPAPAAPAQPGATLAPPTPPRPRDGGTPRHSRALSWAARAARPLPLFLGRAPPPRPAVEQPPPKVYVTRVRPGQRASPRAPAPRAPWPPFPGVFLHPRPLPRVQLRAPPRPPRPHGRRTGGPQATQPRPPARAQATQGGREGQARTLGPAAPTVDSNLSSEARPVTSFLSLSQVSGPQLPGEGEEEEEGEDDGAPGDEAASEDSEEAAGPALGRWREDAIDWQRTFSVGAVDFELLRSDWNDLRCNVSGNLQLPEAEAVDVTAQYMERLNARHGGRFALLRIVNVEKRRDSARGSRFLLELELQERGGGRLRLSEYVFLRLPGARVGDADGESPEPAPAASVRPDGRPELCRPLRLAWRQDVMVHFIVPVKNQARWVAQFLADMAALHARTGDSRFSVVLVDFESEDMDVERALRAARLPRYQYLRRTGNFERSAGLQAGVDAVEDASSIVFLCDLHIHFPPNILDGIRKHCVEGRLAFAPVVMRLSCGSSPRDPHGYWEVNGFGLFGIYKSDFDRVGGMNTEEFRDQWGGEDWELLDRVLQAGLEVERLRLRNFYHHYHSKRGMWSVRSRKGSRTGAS
Description: As described above, it was explained that NGalNAc-T1 and NGalNAc-T2 are glycosyl transferases which transfer GalNAc to GlcNAc. Thereat, the optimum pH of both enzymes was studied. The buffer solutions used are MES (pH 5.5, 6.0, 6.26, 6.5, 6.75), HEPES (pH 6.75, 7.0, 7.4).
In addition, the value (263.21 dpm) of MES (pH 6.75) was adopted as a blank value in the case of a non-enzyme. Further, when pH of HEPES buffer was 7.4 for NGalNAc-T1 and 6.75 for NGalNAc-T2, the highest value was shown. […] Hereinafter, MES (pH 6.5) was used in each of experiments.

glycodelin in CHO cells = experiment: N-glycan structures on glycodelin from NGalNAc-T gene transfected CHO cells, WFA lectin blotting; assay type: cell-based; settings: gene co-transfected with glycodelin gene in CHO cells, 48 hr culture medium
Description: As shown above, both NGalNAc-T1 and -T2 could synthesize LacdiNAc structures on mono- and oligosaccharide acceptors. Actually, it is known that the LacdiNAc structures exist in N-glycans on some glycoproteins. Therefore we examined the ability of NGalNAc-T1 to construct LacdiNAc on glycodelin, which is one of major glycoproteins carrying LacdiNAc structures, in vivo. CHO cells were employed for this purpose, because glycodelin produced in CHO cells is devoid of any of the LacdiNAc-based chains.
The glycodelin expression vector was transfected into CHO cells expressing NGalNAc-T1 or -T2 gene and the culture medium was collected from 48 hr-culture medium. Glycodelin was harvested with WFA affinity column from the culture medium. The harvested glycodelin was applied to SDS-PAGE and used for lectin blotting with WFA.

B1: NGalNAc-T1: human enzyme (SEQ ID NO: 1) transferring N-acetylgalactosamine to N-acetylglucosamine via β1-4 linkage; tested as FLAG-tagged amino acids 62-1039 (protein, listed as Homo sapiens)
chain: RGVHAAPSTQRAEDSSESREEEQAPEGRDLDMLFPGGAGRLPLNFTHQTPPWREEYKGQVNLHVFEDWCGGAVGHLRRNLHFPLFPHTRTTVKKLAVSPKWKNYGLRIFGFIHPARDGDVQFSVASDDNSEFWLSLDESPAAAQLVAFVGKTGSEWTAPGEFTKFSSQVSKPRRLMASRRYYFELLHKQDDRGSDHVEVGWRAFLPGLKFEVISSAHISLYTDESALKMDHVAHVPQSPASHVGGRPPQEETSADMLRPDPRDTFFLTPRMESSSLENVLEPCAYAPTYVVKDFPIARYQGLQFVYLSFVYPNDYTRLTHMETDNKCFYRESPLYLERFGFYKYMKMDKEEGDEDEEDEVQRRAFLFLNPDDFLDDEDEGELLDSLEPTEAAPPRSGPQSPAPAAPAQPGATLAPPTPPRPRDGGTPRHSRALSWAARAARPLPLFLGRAPPPRPAVEQPPPKVYVTRVRPGQRASPRAPAPRAPWPPFPGVFLHPRPLPRVQLRAPPRPPRPHGRRTGGPQATQPRPPARAQATQGGREGQARTLGPAAPTVDSNLSSEARPVTSFLSLSQVSGPQLPGEGEEEEEGEDDGAPGDEAASEDSEEAAGPALGRWREDAIDWQRTFSVGAVDFELLRSDWNDLRCNVSGNLQLPEAEAVDVTAQYMERLNARHGGRFALLRIVNVEKRRDSARGSRFLLELELQERGGGRLRLSEYVFLRLPGARVGDADGESPEPAPAASVRPDGRPELCRPLRLAWRQDVMVHFIVPVKNQARWVAQFLADMAALHARTGDSRFSVVLVDFESEDMDVERALRAARLPRYQYLRRTGNFERSAGLQAGVDAVEDASSIVFLCDLHIHFPPNILDGIRKHCVEGRLAFAPVVMRLSCGSSPRDPHGYWEVNGFGLFGIYKSDFDRVGGMNTEEFRDQWGGEDWELLDRVLQAGLEVERLRLRNFYHHYHSKRGMWSVRSRKGSRTGAS
modifications: FLAG tag
transfer of GalNAc to glycoprotein asialo/agalacto-FCF [1]: same as NGalNAc-T2
pH at which the highest value was shown (NGalNAc-T1; HEPES buffer): 7.4
Incorporation of radioactivity (A) (NGalNAc-T1; HEPES buffer (pH 6.75)): 1685.06 dpm
(A) − (B) (NGalNAc-T1; HEPES buffer (pH 6.75)): 1421.85 dpm
Incorporation of radioactivity (A) (NGalNAc-T1; HEPES buffer (pH 7.0)): 1138.38 dpm
(A) − (B) (NGalNAc-T1; HEPES buffer (pH 7.0)): 875.17 dpm
Incorporation of radioactivity (A) (NGalNAc-T1; HEPES buffer (pH 7.4)): 2587.48 dpm
(A) − (B) (NGalNAc-T1; HEPES buffer (pH 7.4)): 2324.27 dpm
pH at which the activity tends to be higher (NGalNAc-T1; MES buffer): 6.5
Incorporation of radioactivity (A) (NGalNAc-T1; MES buffer (pH 5.5)): 339.76 dpm
(A) − (B) (NGalNAc-T1; MES buffer (pH 5.5)): 76.55 dpm
Incorporation of radioactivity (A) (NGalNAc-T1; MES buffer (pH 6.0)): 321.04 dpm
(A) − (B) (NGalNAc-T1; MES buffer (pH 6.0)): 57.83 dpm
Incorporation of radioactivity (A) (NGalNAc-T1; MES buffer (pH 6.26)): 636.34 dpm
(A) − (B) (NGalNAc-T1; MES buffer (pH 6.26)): 373.13 dpm
Incorporation of radioactivity (A) (NGalNAc-T1; MES buffer (pH 6.5)): 1767.72 dpm
(A) − (B) (NGalNAc-T1; MES buffer (pH 6.5)): 1504.51 dpm
Incorporation of radioactivity (A) (NGalNAc-T1; MES buffer (pH 6.75)): 923.92 dpm
(A) − (B) (NGalNAc-T1; MES buffer (pH 6.75)): 660.71 dpm
non-reducing terminal GalNAc on glycodelin (glycodelin in CHO cells): non-reducing terminal GalNAc is detected
